Reference: doi:10.1101/2022.09.07.507024

Biological target: FMAL-labeled F-actin (rabbit skeletal muscle) (rabbit) (UniProt P68135)
Assay: FRET or BRET

| change of FRET against WT at 2.5 uM C0-C2 (direction not told) [%] | increase of FRET over WT at 2.5 uM C0-C2 [%] | FRET as percent of WT at 2.5 uM C0-C2 (% of wild type FRET) | Substance |
| --- | --- | --- | --- |
| 4 |  |  | TMR-C0-C2^(S85C, L349R), PKA-phosphorylated (domain or fragment) |
| 10 |  |  | TMR-C0-C2^(Cys249, L349R), unphosphorylated (domain or fragment) |
|  | 74 to 160 |  | TMR-C0-C2^(P330C, L352P), PKA-phosphorylated (domain or fragment) |
|  | 105 |  | TMR-C0-C2^(P330C, R282W), PKA-phosphorylated (domain or fragment) |
|  |  | 45 | TMR-C0-C2^(S85C, E334K), PKA-phosphorylated (domain or fragment) |
|  | 74 to 160 |  | TMR-C0-C2^(Cys249, L352P), PKA-phosphorylated (domain or fragment) |
|  | 21 |  | TMR-C0-C2^(P330C, T59A), unphosphorylated (domain or fragment) |
| 22 |  |  | TMR-C0-C2^(S85C, L349R), unphosphorylated (domain or fragment) |
|  | 89 |  | TMR-C0-C2^(P330C, L349R), unphosphorylated (domain or fragment) |
|  | 166 |  | TMR-C0-C2^(P330C, L349R), PKA-phosphorylated (domain or fragment) |
| 31 |  |  | TMR-C0-C2^(Cys249, L349R), PKA-phosphorylated (domain or fragment) |
